Target: CD36 (human (endogenous in primary monocytes)) (UniProt P16671)
Chain of UniProt P16671 (P16671 whole entry): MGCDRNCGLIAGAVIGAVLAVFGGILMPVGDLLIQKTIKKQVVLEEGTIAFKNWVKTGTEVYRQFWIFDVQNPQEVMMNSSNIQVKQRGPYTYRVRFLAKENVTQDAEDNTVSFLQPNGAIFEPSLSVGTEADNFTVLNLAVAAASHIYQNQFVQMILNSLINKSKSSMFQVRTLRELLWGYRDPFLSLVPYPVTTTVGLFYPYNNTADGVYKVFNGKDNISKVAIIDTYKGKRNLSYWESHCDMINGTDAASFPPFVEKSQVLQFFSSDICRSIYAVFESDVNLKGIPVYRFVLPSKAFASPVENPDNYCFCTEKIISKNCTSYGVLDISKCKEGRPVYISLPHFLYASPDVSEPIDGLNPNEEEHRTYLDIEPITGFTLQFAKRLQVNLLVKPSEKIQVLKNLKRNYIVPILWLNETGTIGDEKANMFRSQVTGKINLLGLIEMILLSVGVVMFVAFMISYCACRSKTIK

Substance: bovine lactoferrin (natural protein)
- CD36 surface expression on Mo (flow cytometry, percentage of CD36 positive cells) after bLF 100 μg/mL for 18 h (% CD36 positive cells): < 30
